# Measured values from patent US20210284691A1, “CBX8 CHROMDOMAIN INHIBITORS AND THE USES THEREOF” (Purdue Research Foundation, priority 2019, published 2021).
# Square brackets hold non-standard residues; d marks the D form. Primed or numbered codes have the meaning given here. Ends that are not written are not given here. * marks the point of attachment. triazole = triazole formed by click reaction joining the C-terminal propargylamide to 5/6-carboxyfluorescein; Isoxazole3carbonyl(5-Me) = Cc1cc(C(=O)*)no1; Tyr(3-Cl) = N[C@@H](Cc1ccc(O)c(Cl)c1)C(=O)O; Lys(Me3) = C[N+](C)(C)CCCC[C@H](N)C(=O)O; Lys(Et2) = CCN(CC)CCCC[C@H](N)C(=O)O; triazole″ = not defined here; PEG4′ = not defined here; NH(propargyl) = C#CCN*
# B1: SW2_152F (peptide)
# peptide: PI[Lys(Et2)]S-{NH(propargyl)}
# modifications: also: Pro1 alpha-amino modified, group not given here, non-natural monomers
# notes: Non-derivatized ligand, used in the Thermal Shift Assay and in cells; also called CBX2i
# B2: SW2_152F-FL (library#77) (peptide)
# peptide: PI[Lys(Et2)]S
# modifications: not fully specified (C-terminus); also: Pro1 alpha-amino modified, group not given here (non-natural monomer)
# notes: also called fluorescein-conjugated SW2_152F
# B3: KED97L-FL (peptide)
# peptide: {Isoxazole3carbonyl(5-Me)}-[Tyr(3-Cl)]VI[Lys(Et2)]S-{NH(propargyl)-triazole-5/6‑FAM}
# notes: also called 97L fluorescein derivative; KED97L (as measured)
# B4: KED97 (peptide)
# peptide: {Isoxazole3carbonyl(5-Me)}-[Tyr(3-Cl)]VI[Lys(Me3)]S-NH2
# notes: Final PSL1 ligand with combined synthons
# Columns and labels:
# [1] = target: CBX6 chromodomain (CBX6 ChD), N-terminal His6-tagged recombinant protein (UniProt O95503); assay: competitive fluorescence polarization, displacement of FITC-labelled probe
# [2] = target: CBX7 chromodomain (CBX7 ChD), N-terminal His6-tagged recombinant protein (UniProt O95931); assay: as above
# [3] = target: CBX8 chromodomain (CBX8 ChD), N-terminal His6-tagged recombinant protein (UniProt Q9HC52); assay: as above
# [4] = target: CBX2 chromodomain (CBX2 ChD), N-terminal His6-tagged recombinant protein (UniProt Q14781); assay: competitive fluorescence polarization (FP) assay, displacement of the FITC-labelled probe
# [5] = target: CBX4 chromodomain (CBX4 ChD), N-terminal His6-tagged recombinant protein (UniProt O00257); assay: as above
# [6] = target: T1, CBX2 chromodomain (CBX2 ChD), N-terminal His6-tagged recombinant protein (UniProt Q14781 9-66, limits assumed); assay: Thermal Shift Assay of the non-derivatized ligand
# T1 construct: domain: chromodomain; Expressed in E. coli and purified on Ni-NTA; not shown: N-terminal His6 tag
# T1 sequence (looked up): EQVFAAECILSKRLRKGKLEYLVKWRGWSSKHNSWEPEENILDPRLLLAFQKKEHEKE
# [7] = target: T2, CBX6 chromodomain (CBX6 ChD), N-terminal His6-tagged recombinant protein (UniProt O95503 8-65, limits assumed); assay: direct fluorescence polarization, fluorescein-conjugated ligand
# T2 construct: domain: chromodomain; not shown: N-terminal His6 tag
# T2 sequence (looked up): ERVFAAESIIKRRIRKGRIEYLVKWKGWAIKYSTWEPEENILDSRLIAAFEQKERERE
# [8] = target: T3, CBX8 chromodomain (CBX8 ChD), N-terminal His6-tagged recombinant protein (UniProt Q9HC52 8-61, limits assumed); assay: as above
# T3 construct: domain: chromodomain; not shown: N-terminal His6 tag
# T3 sequence (looked up): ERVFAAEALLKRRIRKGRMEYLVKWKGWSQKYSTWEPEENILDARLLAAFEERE
# [9] = target: T3, CBX8 chromodomain (CBX8 ChD), …; assay: direct fluorescence polarization; reference CBX2 ChD; CBX8 is the closest paralog by Table 3
# [10] = target: T3, CBX8 chromodomain (CBX8 ChD), …; assay: method not given
# [11] = target: T4, CBX7 chromodomain (CBX7 ChD), N-terminal His6-tagged recombinant protein (UniProt O95931 8-62, limits assumed); assay: direct fluorescence titration of KED97L-FL; reference CBX8 ChD
# T4 construct: domain: chromodomain; not shown: N-terminal His6 tag
# T4 sequence (looked up): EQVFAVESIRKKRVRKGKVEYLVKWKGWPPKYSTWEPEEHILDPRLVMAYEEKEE
# [12] = target: T1, CBX2 chromodomain (CBX2 ChD), …; assay: direct fluorescence polarization, FAM-labelled ligand at 100 nM, ChD titrated
# [13] = target: T5, CBX4 chromodomain (CBX4 ChD), N-terminal His6-tagged recombinant protein (UniProt O00257 8-65, limits assumed); assay: as above
# T5 construct: domain: chromodomain; not shown: N-terminal His6 tag
# T5 sequence (looked up): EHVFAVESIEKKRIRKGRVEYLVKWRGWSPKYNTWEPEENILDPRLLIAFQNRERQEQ
# [14] = target: T2, CBX6 chromodomain (CBX6 ChD), …; assay: as above
# [15] = target: T4, CBX7 chromodomain (CBX7 ChD), …; assay: as above
# [16] = target: T3, CBX8 chromodomain (CBX8 ChD), …; assay: as above
# [17] = target: T6, endogenous CBX7 (from cells / lysate) (human, UniProt O95931 1-251); assay: chemoprecipitation from HEK293T nuclear lysate, immunoblot
# T6 sequence (looked up): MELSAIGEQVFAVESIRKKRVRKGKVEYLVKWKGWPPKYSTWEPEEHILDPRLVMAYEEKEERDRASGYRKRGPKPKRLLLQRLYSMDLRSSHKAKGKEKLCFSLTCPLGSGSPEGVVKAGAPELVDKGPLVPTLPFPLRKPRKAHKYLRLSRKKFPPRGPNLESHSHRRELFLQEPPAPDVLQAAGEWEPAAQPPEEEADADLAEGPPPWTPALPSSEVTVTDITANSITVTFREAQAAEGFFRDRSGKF
# [18] = target: T7, BRG1 (endogenous, HEK293T nuclear lysate) (human, UniProt P51532 1-1647); assay: as above
# T7 construct: Non-specific control of the chemoprecipitation
# [19] = target: T8, endogenous CBX4 (HEK293T nuclear lysate) (human, UniProt O00257 1-560, limits assumed); assay: as above
# T8 construct: Meant by 'any other paralogs' in the pulldown text
# T8 sequence (looked up): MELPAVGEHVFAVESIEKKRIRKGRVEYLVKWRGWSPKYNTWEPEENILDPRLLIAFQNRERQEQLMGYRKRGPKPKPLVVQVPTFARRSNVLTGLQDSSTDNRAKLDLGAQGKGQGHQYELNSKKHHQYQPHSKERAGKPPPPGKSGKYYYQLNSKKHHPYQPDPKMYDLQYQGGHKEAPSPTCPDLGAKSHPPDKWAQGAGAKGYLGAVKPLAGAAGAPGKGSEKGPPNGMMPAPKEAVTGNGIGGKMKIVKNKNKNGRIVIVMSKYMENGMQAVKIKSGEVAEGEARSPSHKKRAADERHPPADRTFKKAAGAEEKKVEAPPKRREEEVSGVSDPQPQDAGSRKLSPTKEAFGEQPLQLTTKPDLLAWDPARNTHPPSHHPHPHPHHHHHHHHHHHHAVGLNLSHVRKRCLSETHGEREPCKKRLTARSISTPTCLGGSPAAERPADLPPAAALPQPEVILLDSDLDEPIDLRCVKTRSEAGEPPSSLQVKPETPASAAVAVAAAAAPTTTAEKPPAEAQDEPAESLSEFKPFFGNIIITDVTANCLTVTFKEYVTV
# [20] = target: T9, endogenous CBX6 (HEK293T nuclear lysate) (human, UniProt O95503 1-412); assay: as above
# T9 sequence (looked up): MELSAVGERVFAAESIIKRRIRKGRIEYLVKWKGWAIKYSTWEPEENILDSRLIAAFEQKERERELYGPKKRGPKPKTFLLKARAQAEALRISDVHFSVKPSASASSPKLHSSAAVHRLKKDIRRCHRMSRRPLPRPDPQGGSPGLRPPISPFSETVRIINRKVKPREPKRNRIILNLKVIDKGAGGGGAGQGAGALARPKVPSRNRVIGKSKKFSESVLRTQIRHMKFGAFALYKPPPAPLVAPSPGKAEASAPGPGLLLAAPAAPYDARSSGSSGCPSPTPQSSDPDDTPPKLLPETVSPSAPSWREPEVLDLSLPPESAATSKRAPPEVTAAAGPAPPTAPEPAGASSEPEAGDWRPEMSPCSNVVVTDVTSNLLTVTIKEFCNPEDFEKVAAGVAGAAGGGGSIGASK
# [21] = target: T1, CBX2 chromodomain (CBX2 ChD), …; assay: competitive fluorescence polarization (FP) assay, displacement of the FITC-labelled probe
# [22] = target: T5, CBX4 chromodomain (CBX4 ChD), …; assay: as above
# [23] = target: T2, CBX6 chromodomain (CBX6 ChD), …; assay: as above
# [24] = target: T4, CBX7 chromodomain (CBX7 ChD), …; assay: as above
# [25] = target: T3, CBX8 chromodomain (CBX8 ChD), …; assay: as above
# T7 sequence (P51532 whole entry): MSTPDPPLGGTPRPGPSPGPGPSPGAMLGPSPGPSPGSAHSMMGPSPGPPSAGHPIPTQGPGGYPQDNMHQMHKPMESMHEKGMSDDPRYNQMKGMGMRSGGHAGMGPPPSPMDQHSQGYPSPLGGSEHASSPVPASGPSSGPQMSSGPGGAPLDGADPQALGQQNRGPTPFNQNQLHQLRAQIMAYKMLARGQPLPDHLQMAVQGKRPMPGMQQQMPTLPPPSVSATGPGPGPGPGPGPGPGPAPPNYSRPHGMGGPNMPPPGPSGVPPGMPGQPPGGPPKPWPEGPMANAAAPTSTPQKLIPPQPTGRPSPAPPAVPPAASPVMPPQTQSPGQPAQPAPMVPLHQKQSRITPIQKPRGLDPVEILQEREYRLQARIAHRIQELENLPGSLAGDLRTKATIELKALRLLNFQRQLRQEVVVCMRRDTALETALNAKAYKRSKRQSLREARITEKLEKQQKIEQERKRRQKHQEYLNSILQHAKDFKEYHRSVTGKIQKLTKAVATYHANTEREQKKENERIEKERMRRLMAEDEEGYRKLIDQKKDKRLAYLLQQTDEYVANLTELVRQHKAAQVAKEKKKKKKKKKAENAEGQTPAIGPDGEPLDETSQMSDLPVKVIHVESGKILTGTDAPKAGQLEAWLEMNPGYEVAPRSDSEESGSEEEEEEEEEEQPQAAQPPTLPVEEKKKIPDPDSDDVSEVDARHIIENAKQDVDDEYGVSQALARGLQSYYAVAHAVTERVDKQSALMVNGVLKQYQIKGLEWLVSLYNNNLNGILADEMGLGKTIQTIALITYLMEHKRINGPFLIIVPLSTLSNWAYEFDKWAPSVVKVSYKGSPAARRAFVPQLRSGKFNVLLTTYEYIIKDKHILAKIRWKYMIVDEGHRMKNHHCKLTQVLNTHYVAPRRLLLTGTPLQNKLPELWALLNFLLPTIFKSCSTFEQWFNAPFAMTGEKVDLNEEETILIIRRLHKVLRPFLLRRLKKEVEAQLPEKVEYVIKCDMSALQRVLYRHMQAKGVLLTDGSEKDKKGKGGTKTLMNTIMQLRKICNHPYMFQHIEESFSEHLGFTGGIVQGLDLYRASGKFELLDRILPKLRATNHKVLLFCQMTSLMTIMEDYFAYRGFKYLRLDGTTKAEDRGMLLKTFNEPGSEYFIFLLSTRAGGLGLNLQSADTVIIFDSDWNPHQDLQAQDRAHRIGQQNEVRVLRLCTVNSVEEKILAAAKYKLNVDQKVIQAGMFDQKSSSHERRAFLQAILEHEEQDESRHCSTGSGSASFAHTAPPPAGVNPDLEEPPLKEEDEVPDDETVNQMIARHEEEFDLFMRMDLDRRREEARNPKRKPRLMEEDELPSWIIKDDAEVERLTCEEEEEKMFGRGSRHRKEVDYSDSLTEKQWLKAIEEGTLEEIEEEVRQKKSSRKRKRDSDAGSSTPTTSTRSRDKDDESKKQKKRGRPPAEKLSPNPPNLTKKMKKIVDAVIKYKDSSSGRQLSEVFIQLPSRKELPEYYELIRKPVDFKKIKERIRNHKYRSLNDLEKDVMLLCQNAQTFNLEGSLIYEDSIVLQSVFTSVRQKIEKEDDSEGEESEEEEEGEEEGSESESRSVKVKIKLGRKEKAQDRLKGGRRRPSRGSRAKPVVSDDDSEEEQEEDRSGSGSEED
binder,measurement,setting,value
"[Tyr(3-Cl)]PIK(trimethyl)S-NH2 (also: N-terminal acylation, acyl group not given here) [KED98 (PP)]",IC50,[1],34 µM
same,IC50,[2],83 µM
same,IC50,[3],14 µM
same,IC50,[4],46 µM
same,IC50,[5],173 µM
B1,Kd,[6],0.11 µM
B2,Kd,[7],9 µM
same,Kd,[8],1.9 µM
same,selectivity for CBX2 over the other paralogs (fold),[9],≥ 24 fold
{Isoxazole3carbonyl(5-Me)}-[Tyr(3-Cl)]VI[Lys(Et2)]S-{NH(propargyl)-triazole″-PEG2‑chloroalkane} (reading uncertain) [KED97L-CA (chloroalkane-modified KED97L)],Kd,[10],0.4 µM
B3,selectivity for CBX8 ChD over CBX7 ChD (fold),[11],20 fold
same,Kd,[12],1.1 µM
same,Kd,[13],2.7 µM
same,Kd,[14],0.26 µM
same,Kd,[15],4.7 µM
same,Kd,[16],0.24 µM
"PI[Lys(Et2)]S-{PEG4′-biotin} (also: Pro1 alpha-amino modified, group not given here, non-natural monomers) [SW2_152F-B (biotinylated SW2_152F)]",binding result,[17],no binding
same,binding result,[18],no binding
same,binding result,[19],binds
same,binding result,[20],no binding
B4,IC50,[21],21 µM
same,IC50,[22],49 µM
same,IC50,[23],4.4 µM
same,IC50,[24],60 µM
same,IC50,[25],9.5 µM
